PMC9753473 (The EMBO Journal, 2022)

T1: Chlamydomonas reinhardtii IFT81 (Chlamydomonas reinhardtii, UniProt Q68RJ5 1-683)
T1 sequence (looked up): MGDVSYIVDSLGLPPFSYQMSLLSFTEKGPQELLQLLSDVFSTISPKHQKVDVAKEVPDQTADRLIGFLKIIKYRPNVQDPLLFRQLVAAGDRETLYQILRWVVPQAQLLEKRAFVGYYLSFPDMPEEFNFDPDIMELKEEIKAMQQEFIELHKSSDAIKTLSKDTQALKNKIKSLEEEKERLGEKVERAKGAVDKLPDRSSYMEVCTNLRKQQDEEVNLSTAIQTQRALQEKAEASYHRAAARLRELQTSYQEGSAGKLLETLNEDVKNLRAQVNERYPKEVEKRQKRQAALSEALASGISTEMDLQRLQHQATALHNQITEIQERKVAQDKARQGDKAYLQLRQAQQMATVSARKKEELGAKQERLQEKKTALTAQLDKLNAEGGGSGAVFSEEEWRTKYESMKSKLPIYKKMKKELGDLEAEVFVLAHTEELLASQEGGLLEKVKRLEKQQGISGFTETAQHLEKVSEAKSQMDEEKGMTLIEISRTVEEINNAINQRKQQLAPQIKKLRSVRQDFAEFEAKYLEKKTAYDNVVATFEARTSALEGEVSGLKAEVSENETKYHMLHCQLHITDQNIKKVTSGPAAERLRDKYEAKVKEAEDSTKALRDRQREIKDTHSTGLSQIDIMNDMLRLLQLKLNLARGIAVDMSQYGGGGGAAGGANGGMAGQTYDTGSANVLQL

T2: Chlamydomonas reinhardtii IFT81/74(128‐C) heterodimer (Chlamydomonas reinhardtii, UniProt Q68RJ5 1-683; Q6RCE1 128-641)
T2 sequence (looked up) 1: T1 sequence (looked up)
T2 sequence (looked up) 2: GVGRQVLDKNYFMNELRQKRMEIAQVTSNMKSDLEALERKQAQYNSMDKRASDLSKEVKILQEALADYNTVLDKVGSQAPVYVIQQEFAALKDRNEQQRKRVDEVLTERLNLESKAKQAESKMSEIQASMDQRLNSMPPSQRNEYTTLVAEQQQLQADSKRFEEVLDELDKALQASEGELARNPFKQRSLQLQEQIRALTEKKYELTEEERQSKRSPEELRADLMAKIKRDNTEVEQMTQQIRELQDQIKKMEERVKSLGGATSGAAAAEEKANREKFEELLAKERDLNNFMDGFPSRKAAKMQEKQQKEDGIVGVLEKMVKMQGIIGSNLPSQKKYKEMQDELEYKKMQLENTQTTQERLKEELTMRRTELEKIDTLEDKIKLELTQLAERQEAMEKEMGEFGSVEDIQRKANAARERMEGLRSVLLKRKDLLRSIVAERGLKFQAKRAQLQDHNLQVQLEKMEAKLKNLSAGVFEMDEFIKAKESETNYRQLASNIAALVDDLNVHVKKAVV

T3: CrIFT172(1–968) (Chlamydomonas reinhardtii, UniProt Q5DM57 1-968)
T3 sequence (looked up): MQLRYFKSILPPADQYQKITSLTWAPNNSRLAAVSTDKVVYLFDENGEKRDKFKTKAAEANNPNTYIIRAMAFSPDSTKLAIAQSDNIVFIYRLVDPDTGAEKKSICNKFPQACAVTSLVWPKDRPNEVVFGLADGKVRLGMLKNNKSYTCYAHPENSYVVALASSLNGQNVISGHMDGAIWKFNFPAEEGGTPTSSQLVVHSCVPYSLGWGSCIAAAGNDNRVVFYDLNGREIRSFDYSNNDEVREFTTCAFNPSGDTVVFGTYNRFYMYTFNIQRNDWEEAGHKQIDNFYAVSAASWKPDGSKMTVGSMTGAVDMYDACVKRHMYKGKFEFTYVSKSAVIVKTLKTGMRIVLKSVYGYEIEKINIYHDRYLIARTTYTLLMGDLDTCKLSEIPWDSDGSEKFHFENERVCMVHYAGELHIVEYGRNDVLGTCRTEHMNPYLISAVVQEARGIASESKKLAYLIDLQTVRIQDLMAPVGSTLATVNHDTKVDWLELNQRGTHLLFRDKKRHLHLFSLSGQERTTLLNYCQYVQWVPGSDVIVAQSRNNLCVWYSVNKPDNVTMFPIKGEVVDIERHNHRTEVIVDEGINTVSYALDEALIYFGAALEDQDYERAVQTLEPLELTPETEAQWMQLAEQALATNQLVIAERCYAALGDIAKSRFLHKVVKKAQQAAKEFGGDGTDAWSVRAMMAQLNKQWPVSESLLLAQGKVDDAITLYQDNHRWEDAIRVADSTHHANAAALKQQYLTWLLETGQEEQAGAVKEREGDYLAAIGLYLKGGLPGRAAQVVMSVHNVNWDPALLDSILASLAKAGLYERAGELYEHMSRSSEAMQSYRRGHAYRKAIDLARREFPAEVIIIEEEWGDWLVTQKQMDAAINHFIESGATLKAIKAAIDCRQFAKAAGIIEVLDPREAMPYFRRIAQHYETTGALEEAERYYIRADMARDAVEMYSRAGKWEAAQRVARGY

B1: Chlamydomonas reinhardtii IFT74(128‐C) (domain or fragment, UniProt Q6RCE1 128-641, looked up)
chain: T2 sequence (looked up) 2
B2: Chlamydomonas reinhardtii IFT27 (natural protein)
chain: MVKKEVKPIDITATLRCKVAVVGEATVGKSALISMFTSKGSKFLKDYAMTSGVEVVVAPVTIPDTTVSVELFLLDTAGSDLYKEQISQYWNGVYYAILVFDVSSMESFESCKAWFELLKSARPDRERPLRAVLVANKTDLPPQRHQVRLDMAQDWATTNTLDFFDVSANPPGKDADAPFLSIATTFYRNYEDKVAAFQDACRNY
B3: Chlamydomonas reinhardtii IFT25(1–136) (domain or fragment, UniProt B8LIX8 1-136, looked up)
chain: MKDYAREENGGLVVMASCSDERFPPENMLDGKDNTFWVTTGMFPQEFVLRLESCIRVSKITTLSLNVRKLAVEKCDQDKPDQFEKVFEVELANRGDRLQTEVHQVNIRAKYLKFILLQGHGEFATVNRVSVVGGDD
B4: GST‐tagged CrIFT57(1–234) (domain or fragment, Chlamydomonas reinhardtii, UniProt Q2XQY7 1-234, looked up)
chain: MSSKRGGRSSLAKAPEEAVNGEAFAPEASPPPPGDDGDAGGEDGGAPAPPPPPATKGGPVAVGRSLEIQTTPDVCMEMLADKLKLLNYEADFCRKKKPYRKPLSRLYFAVPLANSSEQFFYFTSLATWLLGLAGVELPAPKEFDDPNLTCQNILGAVKKLGFAPPSYHPTKLTVGNGKEVVGVLDGLVDFVLERRHHKYSRPAYGNDGQPEEGVQLDDEAEAAAMEGADELAMP
B5: Chlamydomonas reinhardtii IFT46(188–319) (domain or fragment, UniProt A2T2X4 188-319, looked up)
chain: QLRQLSKEAPGAKADMVGRLEHTDENKAKKIQQWIASINDIHKAKPAATVNYSKRMPEIEALMQEWPPEVETFLKTMHMPSGDVELDIKTYARLVCTLLDIPVYDDPVESLHVLFTLYLEFKNNPIFRQHME

Key:
[1] = target: T1, Chlamydomonas reinhardtii IFT81; assay: cross-linking
[2] = target: T2, Chlamydomonas reinhardtii …; assay: cross-linking
CrIFT172(1–968) = target: T3, CrIFT172(1–968); assay: pull-down
[3] = target: B1; assay: cross-linking

B1
binding result [1]: binds

B2
binding result [2]: binds

B3
binding result [2]: binds

B4
binding result (CrIFT172(1–968)): binds

B5
binding result [1]: binds | binding result [3]: binds
